test: soluble on expression in E. coli; label from the status in PepcDB or PDB records

| Sequence | soluble on expression in E. coli |
| --- | --- |
| MARDEVRRILPADIKREVLIKDENAETNPDWGFPPEKRPIEMHIQFGVINLDKPPGPTSHEVVAWIKKILNLEKAGHGGTLDPKVSGVLPVALEKATRVVQALLPAGKEYVALMHLHGDVPEDKIIQVMKEFEGEIIQRPPLRSAVKRRLRTRKVYYIEVLEIEGRDVLFRVGVEAGTYIRSLIHHIGLALGVGAHMSELRRTRSGPFKEDETLITLHDLVDYYYFWKEDGIEEYFRKAIQPMEKAVEHLPKVWIKDSAVAAVTHGADLAVPGIAKLHAGIKRGDLVAIMTLKDELVALGKAMMTSQEMLEKTKGIAVDVEKVFMPRDWYPKLWEKRDRSHHHHHH | soluble |
| MSLAPIAQAQHELSISRLIDAPPAKVFRAWTEPQWLMQWWGPHGMTTPECEMQLWAGGLFRTLMRAPDGCEYPNQGVFLEIAAPRRLVFTDAFGPGWVPSDKAFMTAVISFDEEQGKTRYTARAWHWNATDCRAHEEMGFHQGWGESLDRLVEVVTQRMPDLEHHHHHH | soluble |
| GPGSMADSIKKHFQQENEVKDTGCMTSALSYLPIYINTDKLPENMLVGAPLFYPPQMAVLPLSWTDAVGFERSCFITCEGPFPHMTANGKDPHDMSFFFLQYMQRVPFMQSTAERGLPIKQLQDVGLLCCTDAFSHIVTDPAERVVVIFGRNGPYFTSLVITPCTMPEKNVVGNIQLANQISLQDLQKLLDACCPTPLVDEIRLAGTSAGTLQGKLHIACRYGNRVVQFTAASALTVRSARDNEDFIFSLEGDVLAQKRIVFDAATIDALISGKTLDELFSCPGPQCMRVSSLVQLIHMEDLTEISHNLGNGASNGDVTREINLKVSGSRLLLSAGEVSVVFHHAHLGVHFPINSHHGVICEPVLTTDLCLMYYPLGSTAALPNAMMRRVRQLPPTWERSLHTDDALRHNALFHFTDWMRGSVPCITCDLSGFRCAQLYEEKDGMSCRTYVVPLAEEIMVLRWETSTCDWEQHLPHLQKFIDTLHLEVPTA | not soluble |
| MSLDIHDILVIDDSRLQRQHAMDLCRQLGIASVREAPDGERGLTLMRVQMPDLLLLDLEMPKQDGVQVMQEMARAGLSSPVIITSGKDYLLISTVELMGRELGLPVLGCLQKPLQLPALLDLMHRVWTPAERPDDAPLAADEVRVALEKGQIIPYYQPKVNLADGRVKGAEMLARWQHPDLGLIPPSRFIPVIEDNGWATELTMLMLRQGLTQWQEWARHGLRLPLSVNLSALSLRGDELVDEIECYVRGSHVPARFIIFEVTETAIVDNLAQAIGCAVRLRLAGLGLSIDDFGTGFATLQQLTRFPFTELKIDQSLVTGISDKPHLQAVFNSIIEMARRLQLATVAEGIETAEDYQLMAERGCQLGQGYYFARPLPAAAFLEWTRQPPVLPTAGEGHHHHHH | not soluble |
| MGSDKIHHHHHHASKIKQVGSTNLEPTTAYIRNYKATGSNAIYNKPGKLSGSKVVASASTAKAQSVLHGYKVAKLSNKSYYMKVVSFDGRYRGYIYVGKKNPVNNFKKVGGGLTYLSTTTSTSLTNNDKKDLSFAKPGTDTQIYKAPKGSQYKVGAAVKDTTDYKGHKLVASKAAMNDMDGQKWLYVSDVTEPTNASGWVLASQLTDYVAPKAPVSVGNDQTTVTKNWQREFYNPATGTKAYSFDNLNLPLLGTSGGSNVNWTTAVKKFNSDATVKGDKKDVVPADTLATAFKNSGLSTVYMKVTPTLLARIPGGLLDKIDSYSGLYMKFDLDMDNIPTTTHYGDQLKLAYKLDNTNLYYKPVISLGGLTNTNADGYAALPVQLNAMNTLWGLLYQ | not soluble |
| QSSSSAIEATIEGNSQTTISQTSHFIQSYIKKLETTSTGLTQQTDVLAYAENPSQDKVEGIRDLFLTILKSDKDLKTVVLVTKSGQVISTDDSVQMKTSSDMMAEDWYQKAIHQGAMPVLTPARKSDSQWVISVTQELVDAKGANLGVLRLDISYETLEAYLNQLQLGQQGFAFIINENHEFVYHPQHTVYSSSSKMEAMKPYIDTGQGYTPGHKSYVSQEKIAGTDWTVLGVSSLEKLDQVRSQL | not soluble |
| MGSDKIHHHHHHLEKAALILEGGALRSFFTSAVLDYFLEKQMDFEYIHGVSAGTMAAMNYISKQKRRSADVNLHFLHDKRYIGFNNLIRNGGIFNLDFLFSPECYDYSPFDYKAYNESKQIFEITATNVLTGKADIFRKTDTDGQEEAVKASASMPLVSDIRVVNHQPYLDGGIADSIPFRRAQELGYEKIVVVLTRDISYRKPENSRAMNRLVKFRYRDFPRFVQAFADRPQQYNRSLAEIERLEREGKIFVIRPQEPVSVSRVERDDKKLMALYEKGTEVIQNQFADLQKYLAQ | not soluble |
| MVQSCSAYGCKNRYDKDKPVSFHKFPLTRPSLCKEWEAAVRRKNFKPTKYSSICSEHFTPDCFKRECNNKLLKENAVPTIFLCTEPHDKKEDLLEPQEQLPPPPLPPPVSQVDAAIGLLMPPLQTPVNLSVFCDHNYTVEDTMHQRKRIHQLEQQVEKLRKKLKTAQQRCRRQERQLEKLKEVVHFQKEKDDVSERGYVILPNDYFEIVEVPA | soluble |
| MSTRLTTLSHTSEGHRVSVHYGYDDKGRLTGERQTVENPETGELLWHHETGHAYNEQGLANRVTPDSLPPVEWLTYGSGYLAGMKLGGTPLLEFTRDRLHRETVRSFGSMAGSNAAYKLTSTYTPAGQLQSQHLNSLVYDRDYGWNDNGDLVRISGPRQTREYGYSATGRLESVRTLAPDLDIRIPYATDPAGNRLPDPELHPDSTLTVWPDNRIAEDAHYVYRHDEYGRLTEKTDRIPAGVIRTDDERTHHYHYDSQHRLVFYTRIQHGEPLVESRYLYDPLGRRMAKRVWRRERDLTGWMSLSRKPEVTWYGWDGDRLTTVQTDTTRIQTVYEPGSFTPLIRVETENGEREKAQRRSLAETLQQEGSENGHGVVFPAELVRLLDRLEEEIRADRVSSESRAWLAQCGLTVEQLARQVEPEYTPARKVHFYHCDHRGLPLALISEDGNTAWRGEYDEWGNQLNEENPHHLHQPYRLPGQQHDEESGLYYNRHRHYDPLQGRYITPDPIGLRGGWNMYQYPLNPIQVIDPMGLDAIENMTSGGLIYAVSGVPGLIAANSITNSAYQFGYDMDAIVGGAHNGAADAMRHCYLMCRMTKTFGSTIADVIGKNHEAAGDRQGQPAKERIMDLKNNTVGIACGDFSAKCSDACIEKYNTGQLFGLDGIKADNPIKAKQGSSDASNYLEHHHHHH | not soluble |
| MRETSSREDTNNIGKAPEMSGGTIMDTMTSLPHQNDQNVIRHLTNLVKSPASGDDDIKKKEDSIMELGNILAQNKQTEELRNMIEQTRPFLVSLGKAKAAKLVRDLVDLCLKIDDQDGDIKVGLVKECIQWATEQNRTFLRQTLTARLVRLYNDLQRYTQALPLAADLIRELKKVDDKDVLVEVELEESKAYYNLSNIGRARASLTGARTTANAIYVNPRMQAALDLQSGILHAADEKDFKTAFSYFYEAFEGYDSVDEKVSALTALKYMLLCKVMLDLPDEVNSLLSAKLALKYNGSDLDAMKAIAAAAQKRSLKDFQVAFGSFPQELQMDPVVRKHFHSLSERMLEKDLCRIIEPYSFVQIEHVAQQIGIDRSKVEKKLSQMILDQKLSGSLDQGEGMLIVFEIAVPDEAYQTALDTIHAMGEVVDALYSNASKIN | not soluble |
| MSLNIFDHYRQRYEAAKDEEFTLQEFLTTCRQDRSAYANAAERLLMAIGEPVMVDTAQDPRLSRLFSNRVIARYPAFEEFYGMEDAIEQIVSYLKHAAQGLEEKKQILYLLGPVGGGKSSLAERLKSLMQLVPIYVLSANGERSPVNDHPFCLFNPQEDAQILEKEYGIPRRYLGTIMSPWAAKRLHEFGGDITKFRVVKVWPSILQQIAIAKTEPGDENNQDISALVGKVDIRKLEHYAQNDPDAYGYSGALCRANQGIMEFVEMFKAPIKVLHPLLTATQEGNYNGTEGISALPFNGIILAHSNKSEWVTFRNNKNNEAFLDRVYIVKVPYCLRISEEIKIYEKLLNHSELTHAPCAPGTLETLSRFSILSRLKEPENSSIYSKMRVYDGESLKDTDPKAKSYQEYRDYAGVDEGMNGLSTRFAFKILSRVFNFDHVEVAANPVHLFYVLEQQIEVYWQEGHHHHHH | not soluble |
| MKKILIVDDEKPISDIIKFNMTKEGYEVVTAFNGREALEQFEAEQPDIIILDLMLPEIDGLEVAKTIRKTSSVPILMLSAKDSEFDKVIGLELGADDYVTKPFSNRELQARVKALLRRSQ | soluble |
| MMRPTVFSSKAVISSSSLSASLAGAKIIEKGGNIFDAAIAVSSVLSVTQNNLCGLGGDAFALVRYNGRVKGYNGSGKSSRNVNRGLYFELGYSRIPERGIYSAITVPGLVDLWNSLYLEYATMRFSDLISDAIKYAETGFYITRHYEESLIASSPILGQYNWSNQFMPYGKIPAEGDLFIQKDLAGTLREIAEEGPRSFYDGYLSDIIFKAMEKTNLLIDSKDLSDHKTLAANPVKSTYMDYDVFETAPNSQGATVNYWLALLEQKIQNKIPRPVDIVESGLEAYRWRSMFIGDPERMPFNGDLLSKGAGPYYNNPRVPEDKGDTTYFSISDANGNSISMIQSNYMGFGSGIIPEGTGFVLQNRGSYFTLDDKHHNSLEPRKRTFHTLAACIIEKDGELVYSLGTMGGDIQPQVQVQIITGLINQDLMPQEAIERPRWAFPATIYEQPSVLNVEDTSLINENETRLRINPMKYSSSFGTAQVTALLNGRVAGGSDPRGDGFSIPVMAGDPLEHHHHHH | not soluble |
| MGSDKIHHHHHHMDEQLEQLMRQLSGLNEQVRNGAVYQSLGTRLGKLMDGIQRRRRTAVVLPDDQDGVKDVLAELRHQLEQNVPVTLTHEKLTLLTAHLSSTDMALRYQGINFTLYDALQQDALDSAQMAFLLDELSRPDALFSHILEPANTAVFGRSARVAMLAVILHFVTPDVQSHTPDLRRIVILAAMYLCLETDTRGFVNQHGWAHAFTAITDLLTVLAGTEALPRADKLFLMMTLLERVKRLNTPLIYGENDRMAMYLSELANRHQLYADTLLLSLKQWRQQVALHRRPDTIAGWNRFFNRKRLLDSLRLQSELPASLQKYLNSTIDFLG | not soluble |
| MSLTQREEELARVLSGPEFATIRPDDLSVLDYSLLTLRRARLLNGAGFAANSLWLGRGDSARFPEFLRTMGWIGAYDLSLLNVLVSHQIAGDALLSHGGPEQLDAWAGEIDAMERMYCFAGSELLAGSDLKRVRTTAVYDPHGRSLVLNTPRPADSKVWTGNSLHTGDVAMVLARLEVGGRDEGHHWLRVPLREAGAVLPGVRIGRAEPKGGVTANQTGVLTFTDHRLPLSALMNRWASIDEDGTYRSPLPRHRRFEECLATFTHERLFPSVGAAYAQLLACTITTRFAAVKQTFGRPLIGHEHYRMRLSAAVGRSLAARHAMTALAEVAVARSAEGAPARDQVLHALISCGKSGCTGDARQTLAETRELCGGLGYHDANQIAPLLHDYEIAVTFGGDNTVLGYQATRFALREGHHHHHH | not soluble |
| MGSDKIHHHHHHMTRYRFFHTADIHLGKTYRTSTGEAERYEDFFRMLGSIVSDAIAARVDFVLIAGDLFHTGQILPRTFARTIETLQPLKNAGIPCIAVEGNHDWIHRRDSISWMEALSQMGYIHLLRPSRTETGGYRFSPFDYEQGMGGHIEVNGVNIYGLGYIGTQAGAHVARICEAITTTNNILLFHVGVWTYSPVEIGNMKPEEALPLADVFDYVALGHGHKPYIIATPEGRAYAFNPGSPECVNFGEEKYDKGYYLVTVNDGVYTHEFRPTNPRPMLVTTIDLDGAGDAETALTRFRNVVAAKIASFSDDRQPLLEIKLTGRVGFHPFELGRERLRLALEEICNPLHVEIKNHLSLVTAGGGAESEKKSLAEIEREVLRELISAKSEYKGREDELVRLSLAIRDQVLKGETDGEELLGLLMREPA | not soluble |
| MKKAVVVFSGGQDSTTCLVQALKEFDEVHAITFDYGQRHKLEIEVAQQLAKQLGVTAHKVMDVSLLNELAISSLTRDDIPVSHELQANGLPNSFVPGRNILFLTLAGIYAYQIGATTVITGVCETDFSGYPDCRDEFVQAMNQALAKGMDLPLMIRTPLMWLNKAETWALADQLGALDLVRHQTLTCYNGLIGDGCGECPACGLRQAGLKAYLDNRDLIMSALKSKQSAAH | not soluble |
